From the MegaScale stability set (Tsuboyama et al. 2023)

B1: EHEE_rd4_0726 (parent)
chain: DIEITTNGEEDAKRVIKELQKRNLEYHIEVHGNQWVIKVR

Variants of: B1
Assay: folding stability dG (cDNA display proteolysis); higher = more stable
Details: PBS, room temperature

| Variant | folding stability dG [kcal/mol] |
| --- | --- |
| DIEITTNGEEDAKRVIKELQKRNLEYHIEVHGNQWVIKVI [R40I] | 2.84 |
| DIEITTNGEEDAKRVIKELQKRNLEYHIEVHGNQWVIKVP [R40P] | 1.89 |
| DIEITTNGEEDAKRVIKELQKRNLEYHIEVHGNQWVIKVK [R40K] | 2.63 |
| DIEITTNGEEDAKRVIKELQKRNLEYHIEVHGNQWVIKVD [R40D] | 1.59 |
| DIEITTNGEEDAKRVIKELQKRNLEYHIEVHGNQWVIKVC [R40C] | 2.97 |
| DIEITTNGEEDAKRVIKELQKRNLEYHIEVHGNQWVIKVW [R40W] | 2.3 |
| DIEITTNGEEDAKRVIKELQKRNLEYHIEVHGNQWVIKVT [R40T] | 2.48 |
| DIEITTNGEEDAKRVIKELQKRNLEYHIEVHGNQWVIKVL [R40L] | 2.7 |
| DIEITTNGEEDAKRVIKELQKRNLEYHIEVHGNQWVIKVG [R40G] | 1.81 |
| DIEITTNGEEDAKRVIKELQKRNLEYHIEVHGNQWVIKVV [R40V] | 2.65 |
| DIEITTNGEEDAKRVIKELQKRNLEYHIEVHGNQWVIKVY [R40Y] | 2.57 |
| DIEITTNGEEDAKRVIKELQKRNLEYHIEVHGNQWVIKVE [R40E] | 1.73 |
| DIEITTNGEEDAKRVIKELQKRNLEYHIEVHGNQWVIKVQ [R40Q] | 2.11 |
| DIEITTNGEEDAKRVIKELQKRNLEYHIEVHGNQWVIKVF [R40F] | 2.73 |
| DIEITTNGEEDAKRVIKELQKRNLEYHIEVHGNQWVIKVM [R40M] | 2.58 |
| DIEITTNGEEDAKRVIKELQKRNLEYHIEVHGNQWVIKVH [R40H] | 2.74 |
| DIEITTNGEEDAKRVIKELQKRNLEYHIEVHGNQWVIKVA [R40A] | 2.12 |
| DIEITTNGEEDAKRVIKELQKRNLEYHIEVHGNQWVIKVN [R40N] | 1.97 |
| DIEITTNGEEDAKRVIKELQKRNLEYHIEVHGNQWVIKVS [R40S] | 2.18 |
| DIEITTNGEEDAKRVIKELQKRNLEYHIEVHGNFWVIKVR [Q34F] | 2.65 |
| DIEITTNGEEDAKRVIKELQKRNLEYHIEVHGNIWVIKVR [Q34I] | 2.87 |
| DIEITTNGEEDAKRVIKELQKRNLEYHIEVHGNTWVIKVR [Q34T] | 2.58 |
| DIEITTNGEEDAKRVIKELQKRNLEYHIEVHGNPWVIKVR [Q34P] | -0.908 |
| DIEITTNGEEDAKRVIKELQKRNLEYHIEVHGNGWVIKVR [Q34G] | 1.42 |
| DIEITTNGEEDAKRVIKELQKRNLEYHIEVHGNHWVIKVR [Q34H] | 2.36 |
| DIEITTNGEEDAKRVIKELQKRNLEYHIEVHGNSWVIKVR [Q34S] | 2.1 |

| Variant | folding stability dG [kcal/mol] |
| --- | --- |
| DIEITTNGEEDAKRVIKELQKRNLEYHIEVHGNVWVIKVR [Q34V] | 2.72 |
| DIEITTNGEEDAKRVIKELQKRNLEYHIEVHGNWWVIKVR [Q34W] | 2.32 |
| DIEITTNGEEDAKRVIKELQKRNLEYHIEVHGNKWVIKVR [Q34K] | 2.56 |
| DIEITTNGEEDAKRVIKELQKRNLEYHIEVHGNNWVIKVR [Q34N] | 2.21 |
| DIEITTNGEEDAKRVIKELQKRNLEYHIEVHGNRWVIKVR [Q34R] | 2.59 |
| DIEITTNGEEDAKRVIKELQKRNLEYHIEVHGNMWVIKVR [Q34M] | 2.6 |
| DIEITTNGEEDAKRVIKELQKRNLEYHIEVHGNYWVIKVR [Q34Y] | 2.5 |
| DIEITTNGEEDAKRVIKELQKRNLEYHIEVHGNLWVIKVR [Q34L] | 2.65 |
| DIEITTNGEEDAKRVIKELQKRNLEYHIEVHGNQWMIKVR [V36M] | 1.37 |
| DIEITTNGEEDAKRVIKELQKRNLEYHIEVHGNQWHIKVR [V36H] | 1.47 |
| DIEITTNGEEDAKRVIKELQKRNLEYHIEVHGNQWTIKVR [V36T] | 1.77 |
| DIEITTNGEEDAKRVIKELQKRNLEYHIEVHGNQWKIKVR [V36K] | 1.67 |
| DIEITTNGEEDAKRVIKELQKRNLEYHIEVHGNQWNIKVR [V36N] | 0.793 |
| DIEITTNGEEDAKRVIKELQKRNLEYHIEVHGNQWIIKVR [V36I] | 2.7 |
| DIEITTNGEEDAKRVIKELQKRNLEYHIEVHGNQWCIKVR [V36C] | 1.43 |
| DIEITTNGEEDAKRVIKELQKRNLEYHIEVHGNQWWIKVR [V36W] | 1.16 |
| DIEITTNGEEDAKRVIKELQKRNLEYHIEVHGNQWSIKVR [V36S] | 0.912 |
| DIEITTNGEEDAKRVIKELQKRNLEYHIEVHGNQWFIKVR [V36F] | 1.85 |
| DIEITTNGEEDAKRVIKELQKRNLEYHIEVHGNQWEIKVR [V36E] | 0.046 |
| DIEITTNGEEDAKRVIKELQKRNLEYHIEVHGNQWLIKVR [V36L] | 1.93 |
| DIEITTNGEEDAKRVIKELQKRNLEYHIEVHGNQWQIKVR [V36Q] | 0.978 |
| DIEITTNGEEDAKRVIKELQKRNLEYHIEVHGNQWYIKVR [V36Y] | 1.7 |
| DIEITTNGEEDAKRVIKELQKRNLEYHIEVHGNQWRIKVR [V36R] | 1.7 |
| DIEITTNGEEDAKRVIKELQKRNLEYHIEVHGNQWAIKVR [V36A] | 0.418 |
| DIEITTNGEEDAKRVIKELQKRNLEYHIEVHGNQRVIKVR [W35R] | 0.717 |
| DIEITTNGEEDAKRVIKELQKRNLEYHIEVHGNQQVIKVR [W35Q] | 0.512 |

| Variant | folding stability dG [kcal/mol] |
| --- | --- |
| DIEITTNGEEDAKRVIKELQKRNLEYHIEVHGNQIVIKVR [W35I] | 2.06 |
| DIEITTNGEEDAKRVIKELQKRNLEYHIEVHGNQSVIKVR [W35S] | 0.359 |
| DIEITTNGEEDAKRVIKELQKRNLEYHIEVHGNQVVIKVR [W35V] | 1.67 |
| DIEITTNGEEDAKRVIKELQKRNLEYHIEVHGNQNVIKVR [W35N] | -0.421 |
| DIEITTNGEEDAKRVIKELQKRNLEYHIEVHGNQTVIKVR [W35T] | 1.24 |
| DIEITTNGEEDAKRVIKELQKRNLEYHIEVHGNQKVIKVR [W35K] | 0.49 |
| DIEITTNGEEDAKRVIKELQKRNLEYHIEVHGNQAVIKVR [W35A] | 0.294 |
| DIEITTNGEEDAKRVIKELQKRNLEYHIEVHGNQYVIKVR [W35Y] | 1.85 |
| DIEITTNGEEDAKRVIKELQKRNLEYHIEVHGNQCVIKVR [W35C] | 1.35 |
| DIEITTNGEEDAKRVIKELQKRNLEYHIEVHGNQHVIKVR [W35H] | 0.787 |
| DIEITTNGEEDAKRVIKELQKRNLEYHIEVHGNQLVIKVR [W35L] | 1.53 |
| DIEITTNGEEDAKRVIKELQKRNLEYHIEVHGNQMVIKVR [W35M] | 1.44 |
| DIEITTNGEEDAKRVIKELQKRNLEYHIEVHGNQFVIKVR [W35F] | 1.79 |
| DIEITTNGEEDAKRVIKELQKRNLEYHIEVHGNQGVIKVR [W35G] | -0.933 |
| DIEITTNGEEDAKRVIKELQKRNLEYHIEVHGNQWVIGVR [K38G] | 0.141 |
| DIEITTNGEEDAKRVIKELQKRNLEYHIEVHGNQWVICVR [K38C] | 2.33 |
| DIEITTNGEEDAKRVIKELQKRNLEYHIEVHGNQWVIFVR [K38F] | 2.63 |
| DIEITTNGEEDAKRVIKELQKRNLEYHIEVHGNQWVIHVR [K38H] | 2.39 |
| DIEITTNGEEDAKRVIKELQKRNLEYHIEVHGNQWVIMVR [K38M] | 2.16 |
| DIEITTNGEEDAKRVIKELQKRNLEYHIEVHGNQWVINVR [K38N] | 1.29 |
| DIEITTNGEEDAKRVIKELQKRNLEYHIEVHGNQWVIQVR [K38Q] | 1.62 |
| DIEITTNGEEDAKRVIKELQKRNLEYHIEVHGNQWVIYVR [K38Y] | 2.68 |
| DIEITTNGEEDAKRVIKELQKRNLEYHIEVHGNQWVIIVR [K38I] | 3.04 |
| DIEITTNGEEDAKRVIKELQKRNLEYHIEVHGNQWVIEVR [K38E] | 0.557 |
| DIEITTNGEEDAKRVIKELQKRNLEYHIEVHGNQWVIWVR [K38W] | 2.19 |
| DIEITTNGEEDAKRVIKELQKRNLEYHIEVHGNQWVIDVR [K38D] | -0.365 |

| Variant | folding stability dG [kcal/mol] |
| --- | --- |
| DIEITTNGEEDAKRVIKELQKRNLEYHIEVHGNQWVISVR [K38S] | 1.94 |
| DIEITTNGEEDAKRVIKELQKRNLEYHIEVHGNQWVIRVR [K38R] | 2.58 |
| DIEITTNGEEDAKRVIKELQKRNLEYHIEVHGNQWVIAVR [K38A] | 1.32 |
| DIEITTNGEEDAKRVIKELQKRNLEYHIEVHGNQWVILVR [K38L] | 2.34 |
| DIEITTNGEEDAKRVIKELQKRNLEYHIEVHGNQWVIVVR [K38V] | 2.7 |
| DIEITTNGEEDAKRVIKELQKRNLEYHIEVHGNQWVITVR [K38T] | 2.77 |
| DIEITTNGEEDAKRVIKELQKRNLEYHIEVHGNQWVIKYR [V39Y] | 2.08 |
| DIEITTNGEEDAKRVIKELQKRNLEYHIEVHGNQWVIKPR [V39P] | -0.609 |
| DIEITTNGEEDAKRVIKELQKRNLEYHIEVHGNQWVIKSR [V39S] | 0.617 |
| DIEITTNGEEDAKRVIKELQKRNLEYHIEVHGNQWVIKWR [V39W] | 1.83 |
| DIEITTNGEEDAKRVIKELQKRNLEYHIEVHGNQWVIKKR [V39K] | -0.993 |
| DIEITTNGEEDAKRVIKELQKRNLEYHIEVHGNQWVIKMR [V39M] | 1.44 |
| DIEITTNGEEDAKRVIKELQKRNLEYHIEVHGNQWVIKAR [V39A] | 1.06 |
| DIEITTNGEEDAKRVIKELQKRNLEYHIEVHGNQWVIKLR [V39L] | 1.98 |
| DIEITTNGEEDAKRVIKELQKRNLEYHIEVHGNQWVIKIR [V39I] | 2.58 |
| DIEITTNGEEDAKRVIKELQKRNLEYHIEVHGNQWVIKHR [V39H] | 0.549 |
| DIEITTNGEEDAKRVIKELQKRNLEYHIEVHGNQWVIKRR [V39R] | -0.082 |
| DIEITTNGEEDAKRVIKELQKRNLEYHIEVHGNQWVIKQR [V39Q] | -0.263 |
| DIEITTNGEEDAKRVIKELQKRNLEYHIEVHGNQWVIKTR [V39T] | 1.12 |
| DIEITTNGEEDAKRVIKELQKRNLEYHIEVHGNQWVIKFR [V39F] | 2.15 |
| DIEITTNGEEDAKRVIKELQKRNLEYHIEVHGNQWVIKGR [V39G] | 0.015 |
| DIEITTNGEEDAKRVIKELQKRNLEYHIEVHGNQWVLKVR [I37L] | 1.21 |
| DIEITTNGEEDAKRVIKELQKRNLEYHIEVHGNQWVVKVR [I37V] | 1.5 |
| DIEITTNGEEDAKRVIKELQKRNLEYHIEVHGNQWVMKVR [I37M] | 0.481 |
| DIEITTNGEEDAKRVIKELQKRNLEYHIEVHGNQWVFKVR [I37F] | 1.95 |
| DIEITTNGEEDAKRVIKELQKRNLEYHIEVHGNQWVCKVR [I37C] | 1.49 |
